Reference: the supplement of paper PMC10065799, “High-throughput profiling of sequence recognition by tyrosine kinases and SH2 domains using bacterial peptide display” (eLife, 2023)

Experiments:
AncSZ = experiment: phosphorylation enrichment, bacterial display (enrichment ratio); higher = better substrate or ligand; peptides without Tyr show the background
EPHB1 = EPHB1 (UniProt P54762); experiment: as above
EPHB2 = EPHB2 (UniProt P29323); experiment: as above
FGFR1 = FGFR1 (UniProt P11362); experiment: as above
FGFR3 = FGFR3 (UniProt P22607); experiment: as above
Fer (mouse) = experiment: as above
Fes = Fes (UniProt P07332); experiment: as above
Fyn = Fyn (UniProt P06241); experiment: as above
Hck = Hck (UniProt P08631); experiment: as above
Jak2 = Jak2 (UniProt O60674); experiment: as above
MERTK = MERTK (UniProt Q12866); experiment: as above
c-Abl (mouse) = experiment: as above
c-Src = experiment: as above
Grb2 SH2 = Grb2 SH2 (UniProt P62993); experiment: SH2 binding enrichment of the phosphorylated peptide, bacterial display (enrichment ratio); higher = better substrate or ligand; peptides without Tyr show the background
SHP2-C SH2 = experiment: as above
c-Src SH2 = experiment: as above
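For SH2 binding enrichment of the phosphorylated peptide, bacterial display in this document: peptide library displayed on the E. coli surface as eCPX fusions, selected cells deep-sequenced, score is each peptide's frequency after selection divided by its frequency in the input.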
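For phosphorylation enrichment, bacterial display in this document: 11-residue human phosphosite peptides and single-mutation variants displayed on the E. coli surface, counted by deep sequencing, each peptide's frequency after selection divided by its frequency in the unselected input library; frequency after pTyr selection over input frequency; kinase dosed for 20-30% of maximal phosphorylation in three min.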

FGFR3, sequence (P22607 whole entry, looked up): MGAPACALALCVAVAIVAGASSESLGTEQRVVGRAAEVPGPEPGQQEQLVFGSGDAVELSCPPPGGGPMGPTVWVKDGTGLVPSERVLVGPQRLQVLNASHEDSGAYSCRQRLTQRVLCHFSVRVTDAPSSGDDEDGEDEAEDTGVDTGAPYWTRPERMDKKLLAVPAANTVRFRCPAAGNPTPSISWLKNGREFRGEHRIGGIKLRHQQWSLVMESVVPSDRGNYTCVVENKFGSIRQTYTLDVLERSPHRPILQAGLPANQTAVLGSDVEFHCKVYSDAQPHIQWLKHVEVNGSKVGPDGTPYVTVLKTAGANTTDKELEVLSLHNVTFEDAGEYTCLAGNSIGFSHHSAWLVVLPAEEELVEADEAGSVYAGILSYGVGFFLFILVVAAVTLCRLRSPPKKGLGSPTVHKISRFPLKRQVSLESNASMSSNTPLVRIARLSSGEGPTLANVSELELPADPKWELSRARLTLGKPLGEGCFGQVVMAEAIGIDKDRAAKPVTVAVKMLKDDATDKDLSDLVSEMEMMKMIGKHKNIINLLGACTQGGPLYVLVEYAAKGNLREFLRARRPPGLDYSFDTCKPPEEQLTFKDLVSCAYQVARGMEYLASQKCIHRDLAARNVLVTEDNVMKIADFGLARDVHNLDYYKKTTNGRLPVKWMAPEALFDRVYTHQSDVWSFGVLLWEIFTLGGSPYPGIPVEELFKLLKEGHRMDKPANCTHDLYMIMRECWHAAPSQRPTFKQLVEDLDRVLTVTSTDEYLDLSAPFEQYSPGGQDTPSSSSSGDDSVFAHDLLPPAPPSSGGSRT
Fyn, sequence (P06241 whole entry, looked up): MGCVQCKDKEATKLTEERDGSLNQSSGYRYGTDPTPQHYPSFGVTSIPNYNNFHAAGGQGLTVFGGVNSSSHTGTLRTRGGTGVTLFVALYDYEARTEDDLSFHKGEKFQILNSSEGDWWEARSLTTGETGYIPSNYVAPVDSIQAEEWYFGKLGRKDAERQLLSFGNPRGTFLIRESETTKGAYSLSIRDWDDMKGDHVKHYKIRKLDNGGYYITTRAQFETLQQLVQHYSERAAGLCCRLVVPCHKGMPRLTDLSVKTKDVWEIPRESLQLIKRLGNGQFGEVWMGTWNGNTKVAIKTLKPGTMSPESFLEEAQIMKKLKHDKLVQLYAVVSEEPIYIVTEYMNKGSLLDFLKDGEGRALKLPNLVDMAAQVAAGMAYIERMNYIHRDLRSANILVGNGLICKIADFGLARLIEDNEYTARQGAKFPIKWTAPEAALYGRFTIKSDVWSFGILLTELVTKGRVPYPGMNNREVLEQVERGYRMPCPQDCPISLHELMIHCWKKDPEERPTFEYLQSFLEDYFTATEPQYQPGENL
Grb2 SH2, sequence (P62993 whole entry, looked up): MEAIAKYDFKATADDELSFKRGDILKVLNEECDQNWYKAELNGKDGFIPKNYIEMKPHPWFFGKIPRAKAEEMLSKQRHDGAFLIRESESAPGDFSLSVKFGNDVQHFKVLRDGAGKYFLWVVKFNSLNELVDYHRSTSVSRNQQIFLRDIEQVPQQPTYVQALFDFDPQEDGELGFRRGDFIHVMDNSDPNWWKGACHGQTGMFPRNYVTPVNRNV
Hck, sequence (P08631 whole entry, looked up): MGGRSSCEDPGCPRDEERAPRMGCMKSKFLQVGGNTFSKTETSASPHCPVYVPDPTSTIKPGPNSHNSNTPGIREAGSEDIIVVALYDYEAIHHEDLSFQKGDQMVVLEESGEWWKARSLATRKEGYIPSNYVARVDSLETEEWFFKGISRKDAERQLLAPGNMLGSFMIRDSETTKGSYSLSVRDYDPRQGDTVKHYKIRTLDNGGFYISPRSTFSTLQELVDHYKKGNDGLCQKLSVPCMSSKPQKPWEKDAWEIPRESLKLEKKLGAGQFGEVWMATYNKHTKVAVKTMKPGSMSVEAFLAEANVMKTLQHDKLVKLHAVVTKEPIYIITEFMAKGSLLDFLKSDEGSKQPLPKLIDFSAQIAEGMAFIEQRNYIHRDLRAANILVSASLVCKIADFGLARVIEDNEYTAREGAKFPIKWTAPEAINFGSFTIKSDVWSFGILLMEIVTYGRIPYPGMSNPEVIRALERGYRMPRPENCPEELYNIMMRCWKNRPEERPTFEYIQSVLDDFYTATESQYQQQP
Jak2, sequence (O60674 whole entry, looked up): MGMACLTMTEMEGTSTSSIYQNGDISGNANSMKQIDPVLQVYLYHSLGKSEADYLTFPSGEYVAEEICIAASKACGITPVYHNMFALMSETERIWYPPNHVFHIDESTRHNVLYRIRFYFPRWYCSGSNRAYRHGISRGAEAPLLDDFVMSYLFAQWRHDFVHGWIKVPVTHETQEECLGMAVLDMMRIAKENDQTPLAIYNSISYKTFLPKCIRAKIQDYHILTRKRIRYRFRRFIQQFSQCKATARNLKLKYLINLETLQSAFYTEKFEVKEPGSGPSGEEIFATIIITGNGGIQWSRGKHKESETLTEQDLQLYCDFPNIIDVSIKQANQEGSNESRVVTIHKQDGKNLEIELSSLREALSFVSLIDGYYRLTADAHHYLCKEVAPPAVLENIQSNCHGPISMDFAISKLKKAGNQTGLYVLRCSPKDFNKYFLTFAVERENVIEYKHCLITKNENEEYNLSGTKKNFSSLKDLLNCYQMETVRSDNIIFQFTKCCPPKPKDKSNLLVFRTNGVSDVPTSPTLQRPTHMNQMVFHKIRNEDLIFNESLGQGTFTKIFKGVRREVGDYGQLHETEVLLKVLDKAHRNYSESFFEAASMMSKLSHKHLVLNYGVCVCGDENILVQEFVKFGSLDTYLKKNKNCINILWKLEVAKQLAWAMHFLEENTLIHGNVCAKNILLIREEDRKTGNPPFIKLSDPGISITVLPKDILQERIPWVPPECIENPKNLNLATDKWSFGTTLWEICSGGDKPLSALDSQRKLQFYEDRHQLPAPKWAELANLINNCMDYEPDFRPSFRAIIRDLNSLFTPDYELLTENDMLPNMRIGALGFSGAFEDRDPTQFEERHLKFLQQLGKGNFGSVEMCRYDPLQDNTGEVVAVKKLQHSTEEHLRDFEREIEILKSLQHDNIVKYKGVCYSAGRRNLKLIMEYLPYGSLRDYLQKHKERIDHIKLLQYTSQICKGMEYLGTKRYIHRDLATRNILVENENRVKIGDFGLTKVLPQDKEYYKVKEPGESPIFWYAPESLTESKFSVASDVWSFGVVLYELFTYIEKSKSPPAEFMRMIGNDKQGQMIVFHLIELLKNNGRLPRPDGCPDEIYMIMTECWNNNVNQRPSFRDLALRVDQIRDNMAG
MERTK, sequence (Q12866 whole entry, looked up): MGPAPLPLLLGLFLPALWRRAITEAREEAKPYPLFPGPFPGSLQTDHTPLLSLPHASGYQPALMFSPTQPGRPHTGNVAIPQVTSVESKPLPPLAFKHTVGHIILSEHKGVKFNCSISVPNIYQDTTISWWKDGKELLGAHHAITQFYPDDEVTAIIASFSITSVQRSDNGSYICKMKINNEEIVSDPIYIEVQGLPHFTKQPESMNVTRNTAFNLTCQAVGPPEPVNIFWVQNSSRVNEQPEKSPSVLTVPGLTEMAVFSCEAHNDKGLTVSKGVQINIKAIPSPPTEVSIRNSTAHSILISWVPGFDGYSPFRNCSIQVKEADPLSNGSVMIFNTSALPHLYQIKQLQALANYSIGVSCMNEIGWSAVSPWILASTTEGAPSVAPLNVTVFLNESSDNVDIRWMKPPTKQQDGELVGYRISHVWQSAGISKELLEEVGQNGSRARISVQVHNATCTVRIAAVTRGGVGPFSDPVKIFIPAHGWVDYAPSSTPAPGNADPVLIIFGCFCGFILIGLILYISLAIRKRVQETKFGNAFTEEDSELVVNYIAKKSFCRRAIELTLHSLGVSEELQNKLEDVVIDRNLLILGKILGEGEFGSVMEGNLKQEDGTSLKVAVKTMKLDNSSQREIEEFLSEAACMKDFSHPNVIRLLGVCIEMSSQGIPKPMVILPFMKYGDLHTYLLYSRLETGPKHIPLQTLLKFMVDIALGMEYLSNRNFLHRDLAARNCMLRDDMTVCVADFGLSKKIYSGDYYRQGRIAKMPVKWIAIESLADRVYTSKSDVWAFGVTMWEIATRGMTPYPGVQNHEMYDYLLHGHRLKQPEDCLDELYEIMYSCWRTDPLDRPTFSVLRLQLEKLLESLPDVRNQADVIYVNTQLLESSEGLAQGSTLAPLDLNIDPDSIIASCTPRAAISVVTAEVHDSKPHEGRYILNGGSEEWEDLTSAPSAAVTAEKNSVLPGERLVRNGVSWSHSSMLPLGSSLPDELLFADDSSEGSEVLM
FGFR1, sequence (P11362 whole entry, looked up): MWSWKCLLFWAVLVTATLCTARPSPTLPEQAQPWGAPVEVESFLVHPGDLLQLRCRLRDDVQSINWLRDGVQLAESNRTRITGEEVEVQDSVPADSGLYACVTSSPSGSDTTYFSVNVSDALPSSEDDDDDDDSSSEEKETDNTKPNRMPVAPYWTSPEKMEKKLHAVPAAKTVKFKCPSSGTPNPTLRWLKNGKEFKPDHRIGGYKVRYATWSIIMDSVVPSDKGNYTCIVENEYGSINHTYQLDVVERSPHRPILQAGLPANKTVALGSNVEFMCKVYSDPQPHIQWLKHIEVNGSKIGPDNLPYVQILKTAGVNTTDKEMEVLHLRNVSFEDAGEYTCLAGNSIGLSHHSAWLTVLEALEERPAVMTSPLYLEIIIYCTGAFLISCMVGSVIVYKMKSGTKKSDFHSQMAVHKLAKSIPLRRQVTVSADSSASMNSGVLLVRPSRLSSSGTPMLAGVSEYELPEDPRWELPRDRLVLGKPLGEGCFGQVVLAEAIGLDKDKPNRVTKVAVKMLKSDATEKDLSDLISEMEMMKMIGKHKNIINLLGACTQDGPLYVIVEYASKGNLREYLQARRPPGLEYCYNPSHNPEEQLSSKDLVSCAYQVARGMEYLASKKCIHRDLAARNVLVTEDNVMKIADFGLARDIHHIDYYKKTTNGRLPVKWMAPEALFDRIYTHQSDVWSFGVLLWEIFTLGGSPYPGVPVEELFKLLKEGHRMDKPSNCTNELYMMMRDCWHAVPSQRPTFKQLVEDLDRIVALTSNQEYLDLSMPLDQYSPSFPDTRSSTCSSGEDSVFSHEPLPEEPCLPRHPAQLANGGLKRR

| Sequence | phosphorylation enrichment (AncSZ) | phosphorylation enrichment (EPHB1) | phosphorylation enrichment (EPHB2) | phosphorylation enrichment (FGFR1) | phosphorylation enrichment (FGFR3) | phosphorylation enrichment (Fer (mouse)) | phosphorylation enrichment (Fes) | phosphorylation enrichment (Fyn) | phosphorylation enrichment (Hck) | phosphorylation enrichment (Jak2) | phosphorylation enrichment (MERTK) | phosphorylation enrichment (c-Abl (mouse)) | phosphorylation enrichment (c-Src) | SH2 binding enrichment (Grb2 SH2) | SH2 binding enrichment (SHP2-C SH2) | SH2 binding enrichment (c-Src SH2) |
| --- | --- | --- | --- | --- | --- | --- | --- | --- | --- | --- | --- | --- | --- | --- | --- | --- |
| LQLLGDRPVYS [CHST6_Y358_Y358D] | 1.88 | 2.17 | 2.16 | 1.63 | 1.64 | 1.53 | 3.27 | 1.7 | 1.37 | 2.78 | 0.683 | 1.3 | 1.35 | 0.772 | 0.792 | 0.335 |
| SVVVPYDPPEV [TP53_Y220_E221D] | 1.02 | 0.543 | 0.51 | 0.56 | 0.711 | 0.465 | 1.08 | 0.48 | 0.488 | 1.01 | 0.373 | 0.629 | 0.499 | 0.684 | 0.827 | 0.855 |
| GPRKAYELSQR [SETX_Y1297] | 0.464 | 0.343 | 0.328 | 0.422 | 0.355 | 0.381 | 0.539 | 0.401 | 0.389 | 0.558 | 0.409 | 0.492 | 0.412 | 0.982 | 0.707 | 0.422 |
| VTRKEYFIFLE [CAMKV_Y95] | 1.11 | 0.696 | 0.554 | 0.786 | 0.838 | 0.528 | 1.06 | 0.481 | 0.43 | 1.01 | 0.401 | 0.792 | 0.695 | 1.55 | 1.43 | 1.03 |
| PFSSPYENSLI [EPOR_Y489_N487S_YF] | 1.4 | 1.24 | 1.15 | 0.604 | 1.3 | 3.51 | 1.42 | 1.34 | 1.21 | 0.941 | 0.891 | 0.705 | 0.674 | 14.1 | 1.03 | 6.34 |
| SSSGAYGGGYG [KRT19_Y61] | 0.454 | 0.365 | 0.403 | 0.353 | 0.367 | 0.364 | 0.526 | 0.359 | 0.434 | 0.346 | 0.34 | 0.386 | 0.377 | 0.861 | 0.639 | 0.506 |
| TAGFIYEKWEI [TEC_Y360_S359I] | 1.45 | 1.35 | 1.45 | 0.474 | 0.804 | 11.6 | 1.72 | 2.78 | 3.79 | 1.24 | 4.47 | 1.12 | 4.11 | 0.794 | 1.24 | 0.761 |
| ANNPLYKEATP [ITGB3_Y773_S778P] | 0.58 | 0.45 | 0.533 | 0.41 | 0.479 | 0.372 | 0.764 | 0.402 | 0.4 | 0.657 | 0.521 | 0.623 | 0.374 | 0.869 | 0.763 | 0.471 |
| EILLSDLRTGF [TGM1_Y365_Y365D_YF] | 0.779 | 0.42 | 0.477 | 0.487 | 0.56 | 0.576 | 0.891 | 0.464 | 0.478 | 0.69 | 0.378 | 0.631 | 0.418 | 0.7 | 0.567 | 0.417 |
| EFSNQYKATIG [RAB7A_Y37_K32E] | 0.455 | 0.411 | 0.413 | 0.405 | 0.474 | 0.442 | 0.559 | 0.339 | 0.446 | 0.52 | 0.342 | 0.524 | 0.311 | 0.665 | 0.519 | 0.316 |
| KANEFYPVVLI [ADAMTS18_Y765_YF] | 1.03 | 0.448 | 0.48 | 2.76 | 1.97 | 0.82 | 1.15 | 0.482 | 0.412 | 1.06 | 0.451 | 0.68 | 0.506 | 0.663 | 0.421 | 0.388 |
| LLPNAYIFVVQ [L1CAM_Y418_A415P_YF] | 1.79 | 0.849 | 1.06 | 0.868 | 1.07 | 0.731 | 1.66 | 0.634 | 0.73 | 1.5 | 0.561 | 1.06 | 0.481 | 0.65 | 0.508 | 0.47 |
| ARAGEYGAEAL [HBA1_Y25_H21R] | 0.866 | 0.465 | 0.469 | 0.473 | 0.524 | 0.383 | 0.829 | 0.655 | 0.432 | 0.697 | 0.379 | 0.571 | 0.396 | 0.923 | 0.667 | 0.487 |
| GIVEDYRPTFF [ACVRL1_Y421_P424T_YF] | 0.897 | 0.578 | 0.549 | 0.592 | 0.651 | 0.468 | 1.04 | 0.394 | 0.416 | 0.838 | 0.452 | 0.811 | 0.45 | 0.846 | 0.695 | 0.447 |
| QMQNPYSRHSS [MUC13_Y501] | 0.521 | 0.363 | 0.416 | 0.572 | 0.495 | 0.648 | 0.584 | 0.418 | 0.544 | 0.468 | 0.346 | 0.57 | 0.472 | 0.974 | 0.758 | 0.558 |
| RRNNSYTCFTA [SLC20A2_Y386_YF] | 2.81 | 0.96 | 1.65 | 0.886 | 1.33 | 0.734 | 1.68 | 1.19 | 0.771 | 1.95 | 1.3 | 1.86 | 1.69 | 0.7 | 0.509 | 0.695 |
